Molecular target: GMPPA, Q96IJ6-1
Sequence (Q96IJ6 whole entry): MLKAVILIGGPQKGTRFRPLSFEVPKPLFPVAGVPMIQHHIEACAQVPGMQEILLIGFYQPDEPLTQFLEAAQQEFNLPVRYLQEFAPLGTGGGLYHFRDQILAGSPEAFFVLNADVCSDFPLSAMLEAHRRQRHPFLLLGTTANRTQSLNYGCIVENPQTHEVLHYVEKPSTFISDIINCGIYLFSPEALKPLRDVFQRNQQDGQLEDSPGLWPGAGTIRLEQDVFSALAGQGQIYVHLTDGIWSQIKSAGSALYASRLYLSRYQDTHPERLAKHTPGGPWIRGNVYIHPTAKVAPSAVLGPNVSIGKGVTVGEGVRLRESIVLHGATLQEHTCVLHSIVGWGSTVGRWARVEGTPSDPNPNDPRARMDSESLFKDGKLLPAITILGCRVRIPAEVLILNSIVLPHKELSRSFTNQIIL

Mannose-1-phosphate guanylyltransferase catalytic subunit beta (Homo sapiens), Q9Y5P6-1 C266Y, sequence (Q9Y5P6 whole entry C266Y): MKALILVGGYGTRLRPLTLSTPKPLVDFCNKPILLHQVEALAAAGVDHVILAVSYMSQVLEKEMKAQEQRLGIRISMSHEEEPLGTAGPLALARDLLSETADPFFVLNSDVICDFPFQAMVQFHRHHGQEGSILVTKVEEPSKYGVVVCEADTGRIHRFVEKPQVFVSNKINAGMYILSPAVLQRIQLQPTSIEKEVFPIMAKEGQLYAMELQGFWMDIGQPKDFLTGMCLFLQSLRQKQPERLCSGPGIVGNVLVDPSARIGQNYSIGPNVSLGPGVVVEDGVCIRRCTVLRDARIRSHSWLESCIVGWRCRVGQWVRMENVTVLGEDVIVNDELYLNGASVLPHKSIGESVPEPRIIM
Mannose-1-phosphate guanylyltransferase catalytic subunit beta (Homo sapiens), Q9Y5P6-1 R357H, sequence (Q9Y5P6 whole entry R357H): as the sequence (Q9Y5P6 whole entry C266Y) above, with Y266C, R357H counted along it
Mannose-1-phosphate guanylyltransferase catalytic subunit beta (Homo sapiens), Q9Y5P6-1 R293W, sequence (Q9Y5P6 whole entry R293W): as the sequence (Q9Y5P6 whole entry C266Y) above, with Y266C, R293W counted along it
Mannose-1-phosphate guanylyltransferase catalytic subunit beta (Homo sapiens), Q9Y5P6-1 D334N, sequence (Q9Y5P6 whole entry D334N): as the sequence (Q9Y5P6 whole entry C266Y) above, with Y266C, D334N counted along it
Mannose-1-phosphate guanylyltransferase catalytic subunit beta (Homo sapiens), Q9Y5P6-1 L303F, sequence (Q9Y5P6 whole entry L303F): as the sequence (Q9Y5P6 whole entry C266Y) above, with Y266C, L303F counted along it

Substance	effect of a mutation on the interaction
Mannose-1-phosphate guanylyltransferase catalytic subunit beta (Homo sapiens), Q9Y5P6-1 C266Y	with no effect
Mannose-1-phosphate guanylyltransferase catalytic subunit beta (Homo sapiens), Q9Y5P6-1 D334N	with no effect
Mannose-1-phosphate guanylyltransferase catalytic subunit beta (Homo sapiens), Q9Y5P6-1 L303F	with no effect
Mannose-1-phosphate guanylyltransferase catalytic subunit beta (Homo sapiens), Q9Y5P6-1 R293W	with no effect
Mannose-1-phosphate guanylyltransferase catalytic subunit beta (Homo sapiens), Q9Y5P6-1 R357H	decreasing interaction strength
